# Tests used:
# [1] = tested on: IL-8 production by HT29-MTX cells stimulated by TNFα; test: IL-8 production of HT29-MTX cells incubated with peptides and stimulated by TNFα; type: cell-based; conditions: FIG. 4
# Protocol: The inventors then incubated mucus secreting intestinal epithelial HT29-MTX cells with two peptide fragments obtained from the protein ZP05614546.1.
# The inventors measured the IL-8 production (as a marker of inflammation) after stimulation of HT29-MTX cells incubated or not with said peptides and stimulated by TNFα.
# NFκB signaling pathway = test: NFκB luciferase reporter system in HEK 293T cells transfected with pCMV plasmids (Carma-1-dependent activation); type: cell-based, human; conditions: for NFκB signaling pathway inhibition (%): HEK 293T NFκB reporter, proteins cloned in 3× Flag (C-term) pCMV vector, table I
# Text: In order to further analyze the activity of the polypeptides of the invention, the inventors decided to transfect the protein-coding cDNA directly into mammalian epithelial cell model.
# The sequence of the protein ZP05614546.1 (SEQ ID NO: 2) has been cloned in 3× Flag (C-term) pCMV vector.
# In order to test the NFκB signaling pathway inhibiting activity from the orthologs of ZP05614546.1, the other protein sequences from FIG. 3 were also cloned in 3× Flag (C-term) pCMV vector and tested in the NFκB reporter system in human epithelial cells HEK 293T.
# So as to better quantify the anti-inflammatory properties of ZP05614546.1 and orthologs, increasing quantity of pCMV plasmid (i.e. 50, 25 and 12.5 ng) containing SEQ ID NO: 2 and SEQ ID NO: 4 were used to transfected HEK293 cell line. Then, the evolution of NFκB signaling pathway expression was determined as previously. […] Accordingly, the SEQ ID NO: 4 from the strain M21/2 is 100% (2 fold) more efficient in inhibiting NFκB signaling pathway than the protein ZP05614546.1.
# In order to further analyze the activity of the polypeptides of the invention, the inventors decided to clone into the previously described pCMV plasmid, the sequences corresponding to amino acids 23-135 of SEQ ID NO: 2 (Mut 1), 1-39/72-135 of SEQ ID NO: 2 (Mut 2), 1-99 of SEQ ID NO: 2 (Mut 3), 35-77 of SEQ ID NO: 2 (p35-′7′7) and . . . - . . . of SEQ ID NO: 2 from MAM from F. prausnitzii strain A2-165. The four constructs, Mut 1, Mut 3, p35-77 and p49-70 carry the peptide 1-5.
# colonic inflammation = test: Colonic inflammation model in mice treated daily orally with L. lactis expressing the protein; type: in vivo, C57B16 mice; conditions: M21/2 data not shown
# Protocol: C57B16 mice (6-8 weeks old) are kept at room temperature, under 12 h light/dark cycles and having free access to food and water, except the day before the induction of colitis, where they are fasted for 12 h.
# Colonic inflammation is induced by treatments with Dextran Sodium Sulfate […]. In details, DSS is dissolved in drinking water (3 or 5% wt/vol) and the animals are free to drink this solution for 7-days. Water consumption is measured in the DSS-treated groups and compared to groups of naïve mice drinking water: no difference is observed for the volume of liquid consumed, between water and DSS-drinking mice. Mice are treated daily orally, with 200 μL of 1 to 5.10^9 colony forming units (cfu) of strains to be tested or bacterial milieu alone—i.e. L. lactis expressing the protein ZP 05614546.1 (Accession number changed to WP_005932151), its ortholog of strain M21/2 (SEQ ID NO: 4) or no protein-. […] Body weight and survival rate are measured daily after the induction of colitis (or right after the first gavage, in case of preventive treatment). DAI (disease activity index is also measured):
# On day 7 after adding DSS to their drinking water, mice are sacrificed and colons are harvested for measure of several parameters of inflammation: bowel thickness and length, myeloperoxydase (MPO) activity, cytokine expression (IL-17A, IFN-γ, IL10, IL12p70 or other cytokines) can be measured. […]
# [2] = tested on: LPS-dependent NFκB activation; test: LPS-dependent NFκB activation in HEK293T cells stably expressing TLR4, MD2 and CD14, NFκB luciferase reporter; type: cell-based; conditions: FIG. 2
molecule,measurement,setting,value
"VKGNPIEKNNFGDYAMNALGIAAAVYNLGVAPTKNTVKETEVKFTV (VKGNPIEKNNFGDYAMNALGIAAAVYNLGVAPTKNTVKETEVKFTV; listed as Faecalibacterium prausnitzii) [SEQ ID NO: 48, peptide fragment of ZP05614546.1, region between positions 90 and 135]",anti-inflammatory effect (IL-8 production as a marker of inflammation),[1],anti-inflammatory effect in a dose dependent manner
"K G N T F L Q S T I N R T I G V L (KGNTFLQSTINRTIGVL; listed as Faecalibacterium prausnitzii) [SEQ ID NO: 47, peptide fragment of ZP05614546.1, region between positions 53 and 68]",anti-inflammatory effect (IL-8 production as a marker of inflammation),[1],anti-inflammatory effect in a dose dependent manner
"M21/2: ortholog of ZP05614546.1 from strain M21/2 (protein, listed as Faecalibacterium prausnitzii) MMMPANFSAVSENEMTYVMGGSVADYLAPAMGAAQWQNFHKNLITIVGNKYVQGFLDNTVGAMFSGTWTPGDGLTGFGGQFSTIWKKNYTDNVTDESTGAQKFGYGALGVVNSILNVAGNLAAIYNLGFGTAKNIVGEGVYKA",efficiency in inhibiting NFκB signaling pathway relative to protein ZP05614546.1,"NFκB signaling pathway; 50, 25 and 12.5 ng pCMV plasmid, Carma-1-dependant NF-kB activation, HEK293T, FIG. 9",2 fold
same,NFκB signaling pathway inhibition (%),NFκB signaling pathway,90 ± 3%
same,reduction of colonic inflammation,colonic inflammation,upper than the one observed with ZP 05614546.1 protein
"CNCM4573: ortholog of ZP05614546.1 from strain CNCM-4573 (protein, listed as Faecalibacterium prausnitzii) MMMPANFSAVSENEMTYVMGGSIADYLAPAMGAAQWQNFHKNLVTIVGNKYVQGFLDNTVGAVFSGTWTPGVGLTGFGGQFSTIWKKNYTDNVTDESTGAQKFGYGALGVVNSILNVAGNLAAIYNLGFGTAKNIVGEGVYKA",NFκB signaling pathway inhibition (%),NFκB signaling pathway,89 ± 2%
"SL3/3: ortholog of ZP05614546.1 from strain SL3/3 (protein, listed as Faecalibacterium prausnitzii) MMMPANFSAVSENEMTYVMGGSVADYLAPAMGAAQWQNFHKNLITIVGNKYVQGFLDNTVGAVFSGTWTPGDGLTGFGGQFSKIWKDNYTDNVTGESTGAQKFGYGALGVVNSILNVAGNLAAIYNLGFGTAKNIVGEGVYKA",NFκB signaling pathway inhibition (%),NFκB signaling pathway,86 ± 5%
"KLE1255: ortholog of ZP05614546.1 from strain KLE1255 (protein, listed as Faecalibacterium prausnitzii) MMMPANFSAVAENEMTYVVGGSLVDVLAPAMTTANWQNVSANVIKIVGNSFLAKYTNDVLAQLFDGNYVPGDVIGYSVKNLDKAYNKGYGTFGGNWGFAVGALNAGMQILGGLSAIYTLGSSSIGLETKSGTLPTL",NFκB signaling pathway inhibition (%),NFκB signaling pathway,72 ± 1%
"ZP05614546.1: conserved hypothetical protein of F. prausnitzii strain A2-165 (protein, listed as Faecalibacterium prausnitzii) MMMPANYSVIAENEMTYVNGGANFIDAIGAVTAPIWTLDNVKTFNTNIVTLVGNTFLQSTINRTIGVLFSGNTTWKEVGNIGKNLFGTNVKGNPIEKNNFGDYAMNALGIAAAVYNLGVAPTKNTVKETEVKFTV",NFκB signaling pathway inhibition (%),NFκB signaling pathway,58 ± 6%
same,inhibition of Carma-1-dependent NFκB activation,"NFκB signaling pathway; HEK293T cells, NFκB luciferase reporter, FIG. 1",inhibits Carma-1-dependent NFκB activation
same,inhibition of NFκB signaling pathway,"NFκB signaling pathway; NFκB reporter system in human epithelial cells HEK 293T, protein cDNA transfected in pCMV vector",inhibits the NFκB signaling pathway in a dose-dependent manner
same,inhibition of LPS-dependent NFκB activation,[2],inhibits the LPS-dependent NFκB activation
same,reduction of colonic inflammation,colonic inflammation,significantly reduce colonic inflammation
"L2-62: ortholog of ZP05614546.1 from strain L2-62 (protein, listed as Faecalibacterium prausnitzii) MMMPANFSAVNAEVVYGGAVADYLPSAWTAESVKRFNSNIITLVSNSFTSHLLKATLGTMFSGSWGSDGVTLFGDNGTFSGLYNVNRLPGGEAQTFGNKIMTTLGLASVVYTLGMKDAAVLTAKKVTNSNGQVWGDLPNNGGSGWVG",NFκB signaling pathway inhibition (%),NFκB signaling pathway,34 ± 5%

# — patent US11013783B2, “Anti-inflammatory peptides and methods for treating inflammatory diseases” (INSTITUT NATIONAL DE LA RECHERCHE AGRONOMIQUE (INRA), priority 2012, dated 2021)
